Assay results as given in patent US20100278838A1, “EPHA2 MONOCLONAL ANTIBODIES AND METHODS OF USE THEREOF” (MEDIMMUNE, LLC, priority 2002, published 2010).
“Also recorded” adds a separate entry of the source.

B1: Eph099B-208.261: EphA2 monoclonal antibody; hybridoma ATCC PTA-4573; VL SEQ ID NO:1, VH SEQ ID NO:5 (antibody, listed as Homo sapiens, V domains shown)
VH: QVQLQQPGAELVKPGASVKLSCKASGYTFTSYWMHWVKQRPGQGLEWIGMIHPNSGSTNYNEKFKSKATLTVDKSSSTAYMRLSSLTSEDSAVYYCARGGNMVGGGYWGQGTTLTVSS
VL: QIVLTQSPALMSASPGEKVTMTCSASSSVSYMYWYQQKPRSSPKPWIYLTTNLASGVPARFSGSGSGTSYSLTISSMEAEDAATYYCQQWSSNPFTFGSGTKLEIR
B2: EA2: EphA2 agonistic monoclonal antibody; ATCC deposit no. PTA-4380; co-pending application Ser. No. 10/436,783; VL SEQ ID NO:33, VH SEQ ID NO:37 (antibody, listed as Homo Sapiens, V domains shown)
VH: DVKLVESGGGLVKPGGSLKLSCAASGFTFSSYTMSWVRQTPEKRLEWVATISSGGTYTYYPDSVKGRFTISRDNAKNTLYLQMSSLKSEDTAMYYCTREAIFTYWGQGTLVTVSA
VL: DIKMTQSPSSMYASLGERVTITCKASQDINNYLSWFQQKPGKSPKTLIYRANRLVDGVPSRFSGSGSGQDYSLTISSLEYEDMGIYYCLKYDEFPYTFGGGTKLEIK
B3: Eph099B-233.152: EphA2 monoclonal antibody; hybridoma ATCC PTA-5194; VL SEQ ID NO:17, VH SEQ ID NO:21 (antibody, listed as Homo sapiens, V domains shown)
VH: EVKLVESGGGLVQPGGSLSLSCAASGFTFTDYSMNWVRQPPGKALEWLGFIRNKANDYTTEYSASVKGRFTISRDNSQSILYLQMNALRAEDSATYYCVRYPRYHAMDSWGQGTSVTVSS
VL: DIVLTQSPATLSVTPGDSVNLSCRASQSISNNLHWYQQKSHESPRLLIKYVFQSISGIPSRFSGSGSGTDFTLSINSVETEDFGMYFCQQSNSWPLTFGAGTKLELK

What was measured:
[1] = tested on: EphA2; assay: EphA2 degradation / protein level in MDA-MB-231 cells (western blot); format: cell-based; details: MDA-MB-231 monolayers, single dose 5 μg/ml, 37° C.
Sequence of EphA2 (P29317 24-976): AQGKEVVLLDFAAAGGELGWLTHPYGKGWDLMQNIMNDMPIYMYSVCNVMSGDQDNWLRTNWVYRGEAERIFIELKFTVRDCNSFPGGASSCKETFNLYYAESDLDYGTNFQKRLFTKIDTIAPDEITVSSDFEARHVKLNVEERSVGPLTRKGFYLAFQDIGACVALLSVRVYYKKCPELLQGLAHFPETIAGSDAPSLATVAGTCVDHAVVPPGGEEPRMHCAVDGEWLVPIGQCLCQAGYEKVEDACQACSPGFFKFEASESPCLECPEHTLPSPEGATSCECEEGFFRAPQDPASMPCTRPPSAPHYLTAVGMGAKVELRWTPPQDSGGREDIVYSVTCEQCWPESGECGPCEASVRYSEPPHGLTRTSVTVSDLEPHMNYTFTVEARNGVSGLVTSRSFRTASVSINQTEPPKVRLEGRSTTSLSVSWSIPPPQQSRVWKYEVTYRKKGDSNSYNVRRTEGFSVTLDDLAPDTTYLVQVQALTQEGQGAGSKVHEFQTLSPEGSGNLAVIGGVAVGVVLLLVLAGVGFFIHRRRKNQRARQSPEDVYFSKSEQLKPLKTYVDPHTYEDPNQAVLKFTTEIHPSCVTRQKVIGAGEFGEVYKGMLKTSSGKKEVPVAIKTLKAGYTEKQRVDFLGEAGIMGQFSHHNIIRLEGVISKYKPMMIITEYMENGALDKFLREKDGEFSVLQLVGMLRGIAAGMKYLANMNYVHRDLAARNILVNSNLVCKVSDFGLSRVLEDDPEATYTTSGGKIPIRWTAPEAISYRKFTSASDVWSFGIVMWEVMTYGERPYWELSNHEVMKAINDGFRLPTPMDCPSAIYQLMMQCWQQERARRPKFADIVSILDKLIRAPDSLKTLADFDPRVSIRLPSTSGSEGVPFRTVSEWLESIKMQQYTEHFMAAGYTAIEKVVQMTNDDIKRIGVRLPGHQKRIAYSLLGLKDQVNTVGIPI
Procedure: Monolayers of MDA-MB-231 cells were incubated in the presence of a single dose of 5 μg/ml (A, C) Eph099B-208.261 or (B, D) EA2 for the indicated time at 37° C. Cell lysates were then resolved by SDS-PAGE and subjected to western blot analysis with an EphA2-specific antibody (A, B). The membranes were stripped and re-probed with a β-catenin-specific antibody as a loading control (C, D).
Monolayers of MDA-MB-231 cells were incubated in the presence of a single dose of 5 μg/ml Eph099B-233.152 at 37° C. Cell lysates were then immunoprecipitated with D7 (an EphA2-specific antibody), resolved by SDS-PAGE and subjected to western blot analysis with (A) a phosphotyrosine-specific antibody or (B) an EphA2-specific antibody.
Monolayers of MDA-MB-231 cells were incubated in the presence of EphA2 agonistic antibodies at 37° C. Cell lysates were then resolved by SDS-PAGE and subjected to western blot analysis with an EphA2-specific antibody (D7). […] Some membranes were stripped and re-probed with a β-catenin-specific antibody as a loading control (FIGS. 3C-3D). […] Decreased EphA2 expression is due, in part, to deceased mRNA expression levels in response to EphA2 protein degradation caused by agonistic antibody binding (data not shown).
Western blot analyses and immunoprecipitations were performed as described previously (Zantek et al., 1999, Cell Growth Diff. 10:629-38, which is incorporated by reference in its entirety). Briefly, detergent extracts of cell monolayers were extracted in Tris-buffered saline containing 1% Triton X-100 (Sigma, St. Louis, Mo.). After measuring protein concentrations (BioRad, Hercules, Calif.), 1.5 mg of cell lysate was immunoprecipitated, resolved by SDS-PAGE and transferred to nitrocellulose (PROTRAN™, Schleicher and Schuell, Keene, N.H.). Antibody binding was detected by enhanced chemiluminescence (Pierce, Rockford, Ill.) and autoradiography (Kodak X-OMAT; Rochester, N.Y.).

[2] = tested on: cancer cell colonies already formed in soft agar; assay: Elimination of cancer cell colonies already formed in soft agar; format: cell-based; details: antibodies added on third day; data not shown
Procedure: (§1) The ability of the antibodies of the invention to inhibit cancer cell formation in soft agar was assayed as described in Zelinski et al. (2001, Cancer Res. 61:2301-6). Briefly, cells were suspended in soft agar for 7 days at 37° C. in the presence of purified antibody or control solution (PBS). Antibodies were administered at the time of suspension in both bottom and top agar solutions. Colony formation was scored microscopically using an Olympus CK-3 inverted phase-contrast microscope outfitted with a 40× objective. Clusters containing at least three cells were scored as a positive.
The ability of the antibodies of the invention to eliminate cancer cell colonies already formed in soft agar was assayed. Assay methods were similar to those described above except that antibodies were not added to the cancer cells until the third day of growth in soft agar.

[3] = tested on: malignant MDA-MB-231 tumor cells; assay: Inhibition of colony formation in soft agar; format: cell-based; details: MDA-MB-231, single dose 5 μg/ml, 37° C.
Procedure: FIG. 5: EphA2 antibodies inhibit malignant tumor cell growth in soft agar. A single dose of 5 μg/ml of Eph099B-208.261 (black bar), EA2 (white bar) purified EphA2 antibodies or a negative control antibody, 1A7 (gray bar) were incubated with malignant MDA-MB-231 tumor cells for the indicated time at 37° C. in soft agar. Results are reported as colonies per high-powered field (HPF).
as §1

[4] = tested on: A549 lung cancer cells implanted subcutaneously; assay: Tumor growth in vivo, A549 implanted subcutaneously; design: species or system athymic mice; details: 6mg/kg intraperitoneally twice a week for 3 weeks; versus PBS or 1A7
Procedure: FIGS. 7A-7D: The EphA2 antibodies, EA2, Eph099B-208.261, and Eph099B-233.152, inhibit tumor cell growth in vivo. MDA-MB-231 breast cancer cells were implanted (A) orthotopically or (B) subcutaneously into athymic mice. (C) A549 lung cancer cells were implanted subcutaneously into athymic mice. After the tumors had grown to an average volume of 100 mm^3, mice were administered 6 mg/kg of the indicated antibody or negative control (PBS or 1A7 antibody) intraperitoneally twice a week for 3 weeks. Tumor growth was assessed and expressed as a ratio of the tumor volume divided by initial tumor volume (100 mm^3). (D) MDA-MB-231 breast cancer cells were implanted subcutaneously into athymic mice. After the tumors had grown to an average volume of 100 mm^3, mice were administered 6 mg/kg of the indicated antibody or negative control intraperitoneally twice a week for 3 weeks. Total tumor volume was determined after sacrifice. Negative control is black, EA2 is white, Eph099B-208.261 is dark grey, and Eph099B-233.152 is light grey.
5×10^6MDA-MB-231 breast cancer cells were implanted orthotopically or subcutaneously and 5×10^6 A549 lung cancer cells were implanted subcutaneously into athymic mice. […] Tumor growth was assessed and expressed either as a ratio of the tumor volume divided by initial tumor volume (100 mm^3) or as total tumor volume. […]

[5] = biological target: T1, EphA2-Ephrin A1-Fc complex (Homo sapiens, UniProt P29317); assay: Binding of biotinylated protein to EphA2-Ephrin A1-Fc complex on microtiter plate; details: FIG. 18A
T1 construct: consisting of the extracellular domain of EphA2 linked to human IgG1 constant region
T1 sequence (P29317 24-537 limits assumed): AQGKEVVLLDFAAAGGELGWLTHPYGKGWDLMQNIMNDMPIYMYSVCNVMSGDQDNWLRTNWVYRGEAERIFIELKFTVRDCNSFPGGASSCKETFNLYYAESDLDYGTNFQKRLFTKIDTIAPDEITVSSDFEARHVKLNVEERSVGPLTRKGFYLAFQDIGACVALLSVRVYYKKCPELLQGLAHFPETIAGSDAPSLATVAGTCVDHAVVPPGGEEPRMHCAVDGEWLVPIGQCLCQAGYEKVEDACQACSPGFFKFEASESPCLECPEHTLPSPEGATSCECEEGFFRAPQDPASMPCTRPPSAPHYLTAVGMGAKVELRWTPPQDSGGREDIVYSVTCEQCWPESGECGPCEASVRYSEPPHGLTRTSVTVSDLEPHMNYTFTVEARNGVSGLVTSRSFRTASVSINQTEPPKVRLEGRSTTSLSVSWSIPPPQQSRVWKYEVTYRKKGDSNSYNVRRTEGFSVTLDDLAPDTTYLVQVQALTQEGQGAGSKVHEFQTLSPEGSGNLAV
T1 sequence (P20827 19-182 partner limits assumed): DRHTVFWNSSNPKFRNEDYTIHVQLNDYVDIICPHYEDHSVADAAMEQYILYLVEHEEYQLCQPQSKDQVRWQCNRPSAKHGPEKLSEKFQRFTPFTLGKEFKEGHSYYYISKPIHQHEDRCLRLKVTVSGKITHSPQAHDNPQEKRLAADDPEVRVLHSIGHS
Procedure: FIGS. 18A-18B: EphA2 EA2 epitope is distinct from Eph099B-233.152 epitope and ligand binding site. (A) EphA2-Fc was incubated with and bound to immobilized Ephrin A1-Fc. Labeled Ephrin A1-Fc (black), EA2 (white) or Eph099B-233.152 (grey) was incubated with the EphA2-Ephrin A1-Fc complex and amount of binding was measured. (B) EphA2-Fc was incubated with and bound to immobilized Ephrin A1-Fc. Labeled EA2 was then incubated with the EphA2-Ephrin A1 complex. Unlabeled competitor was incubated with EphA2-Ephrin A1-EA2 complex in the indicated amount. Competitors were Ephrin A1-Fc (black), EA2 (white) or Eph099B-233.152 (grey).
A microtiter plate was coated with […] Ephrin A1-Fc overnight at 4° C. A fusion protein consisting of the extracellular domain of EphA2 linked to human IgG1 constant region (EphA2-Fc) was incubated with and bound to the immobilized Ephrin A1-Fc. Biotinylated Ephrin A1-Fc, EA2, or Eph099B-233.152 was incubated with the EphA2-Ephrin A1-Fc complex and amount of binding was measured.

Molecule | EphA2 protein level [1] | Effect on cancer cell colonies already growing in soft agar [2] | Colony growth in soft agar [3] | Growth of A549 cells implanted subcutaneously [4] | Amount of binding to EphA2-Ephrin A1-Fc complex [5]
B1 | decreased EphA2 protein level | can slow or reduce cancer cell colony growth in soft agar | inhibited colony growth in soft agar | inhibited | –
B2 | decreased EphA2 protein level | – | inhibited colony growth in soft agar | inhibited | considerable levels
B3 | decreased EphA2 protein level; also recorded: EphA2 degradation | can slow or reduce cancer cell colony growth in soft agar | – | – | considerable levels
